From the supplement of paper PMC10065799, “High-throughput profiling of sequence recognition by tyrosine kinases and SH2 domains using bacterial peptide display” (eLife, 2023)

Assays:
Jak2 = Jak2 (UniProt O60674); test: phosphorylation enrichment, bacterial display (enrichment ratio); higher = better substrate or ligand; peptides without Tyr show the background
c-Src = test: as above
FGFR3 = FGFR3 (UniProt P22607); test: as above
c-Abl (mouse) = test: as above
Fes = Fes (UniProt P07332); test: as above
Fyn = Fyn (UniProt P06241); test: as above
Sequence of Fyn (P06241 whole entry, looked up): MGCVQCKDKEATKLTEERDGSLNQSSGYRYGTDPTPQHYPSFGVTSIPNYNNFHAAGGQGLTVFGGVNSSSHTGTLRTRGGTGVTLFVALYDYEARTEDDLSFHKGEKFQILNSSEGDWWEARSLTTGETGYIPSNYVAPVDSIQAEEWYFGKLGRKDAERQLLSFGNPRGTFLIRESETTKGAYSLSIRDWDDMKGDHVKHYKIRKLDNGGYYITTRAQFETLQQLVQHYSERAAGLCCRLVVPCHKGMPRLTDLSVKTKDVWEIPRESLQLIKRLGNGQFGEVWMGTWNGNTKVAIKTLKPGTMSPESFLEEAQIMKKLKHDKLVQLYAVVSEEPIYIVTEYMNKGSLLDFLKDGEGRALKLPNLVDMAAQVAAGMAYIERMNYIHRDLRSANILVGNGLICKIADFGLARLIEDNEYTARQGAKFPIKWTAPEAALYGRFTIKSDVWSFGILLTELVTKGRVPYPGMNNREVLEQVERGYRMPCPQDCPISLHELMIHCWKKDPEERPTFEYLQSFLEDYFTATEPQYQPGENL

Hck = Hck (UniProt P08631); test: as above
Sequence of Hck (P08631 whole entry, looked up): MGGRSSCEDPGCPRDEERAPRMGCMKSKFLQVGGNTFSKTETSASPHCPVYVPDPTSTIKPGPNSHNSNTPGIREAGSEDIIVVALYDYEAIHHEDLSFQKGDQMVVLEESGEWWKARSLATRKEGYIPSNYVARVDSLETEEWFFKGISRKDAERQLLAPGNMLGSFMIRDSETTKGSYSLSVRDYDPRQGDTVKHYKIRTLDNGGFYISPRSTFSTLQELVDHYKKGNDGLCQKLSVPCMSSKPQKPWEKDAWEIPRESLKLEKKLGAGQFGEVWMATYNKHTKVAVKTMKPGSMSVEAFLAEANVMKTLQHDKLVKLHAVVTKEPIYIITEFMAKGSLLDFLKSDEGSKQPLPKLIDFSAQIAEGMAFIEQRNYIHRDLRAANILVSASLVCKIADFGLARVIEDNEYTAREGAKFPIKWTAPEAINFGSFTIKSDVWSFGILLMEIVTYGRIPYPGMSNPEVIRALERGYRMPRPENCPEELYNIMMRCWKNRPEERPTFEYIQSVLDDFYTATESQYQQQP

MERTK = MERTK (UniProt Q12866); test: as above
Sequence of MERTK (Q12866 whole entry, looked up): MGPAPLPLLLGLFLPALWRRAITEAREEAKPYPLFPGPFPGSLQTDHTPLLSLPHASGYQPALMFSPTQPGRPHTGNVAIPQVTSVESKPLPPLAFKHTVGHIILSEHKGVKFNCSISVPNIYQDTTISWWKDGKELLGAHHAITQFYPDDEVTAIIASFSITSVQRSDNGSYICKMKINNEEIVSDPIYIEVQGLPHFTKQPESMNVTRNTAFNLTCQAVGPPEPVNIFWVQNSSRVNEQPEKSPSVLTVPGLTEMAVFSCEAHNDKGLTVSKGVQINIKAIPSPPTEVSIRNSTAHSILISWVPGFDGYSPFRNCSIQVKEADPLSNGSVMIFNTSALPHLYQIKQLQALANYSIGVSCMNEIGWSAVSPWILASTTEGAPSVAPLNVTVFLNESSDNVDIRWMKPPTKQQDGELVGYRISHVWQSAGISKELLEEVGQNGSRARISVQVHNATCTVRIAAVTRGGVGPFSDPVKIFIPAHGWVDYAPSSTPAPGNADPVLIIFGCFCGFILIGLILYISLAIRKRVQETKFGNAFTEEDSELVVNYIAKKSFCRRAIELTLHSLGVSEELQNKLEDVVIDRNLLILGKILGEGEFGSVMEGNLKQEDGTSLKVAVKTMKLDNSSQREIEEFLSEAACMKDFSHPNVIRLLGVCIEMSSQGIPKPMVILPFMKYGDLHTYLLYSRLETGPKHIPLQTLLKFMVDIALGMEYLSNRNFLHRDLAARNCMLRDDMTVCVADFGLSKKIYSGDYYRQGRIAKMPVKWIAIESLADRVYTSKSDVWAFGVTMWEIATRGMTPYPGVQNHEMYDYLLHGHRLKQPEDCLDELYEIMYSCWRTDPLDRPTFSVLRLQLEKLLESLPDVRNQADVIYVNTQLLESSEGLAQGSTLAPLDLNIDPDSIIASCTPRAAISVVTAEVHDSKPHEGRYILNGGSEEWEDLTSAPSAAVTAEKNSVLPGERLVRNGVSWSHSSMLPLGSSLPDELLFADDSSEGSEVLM

Fer (mouse) = test: as above
AncSZ = test: as above
EPHB2 = EPHB2 (UniProt P29323); test: as above
EPHB1 = EPHB1 (UniProt P54762); test: as above
Sequence of EPHB1 (P54762 whole entry, looked up): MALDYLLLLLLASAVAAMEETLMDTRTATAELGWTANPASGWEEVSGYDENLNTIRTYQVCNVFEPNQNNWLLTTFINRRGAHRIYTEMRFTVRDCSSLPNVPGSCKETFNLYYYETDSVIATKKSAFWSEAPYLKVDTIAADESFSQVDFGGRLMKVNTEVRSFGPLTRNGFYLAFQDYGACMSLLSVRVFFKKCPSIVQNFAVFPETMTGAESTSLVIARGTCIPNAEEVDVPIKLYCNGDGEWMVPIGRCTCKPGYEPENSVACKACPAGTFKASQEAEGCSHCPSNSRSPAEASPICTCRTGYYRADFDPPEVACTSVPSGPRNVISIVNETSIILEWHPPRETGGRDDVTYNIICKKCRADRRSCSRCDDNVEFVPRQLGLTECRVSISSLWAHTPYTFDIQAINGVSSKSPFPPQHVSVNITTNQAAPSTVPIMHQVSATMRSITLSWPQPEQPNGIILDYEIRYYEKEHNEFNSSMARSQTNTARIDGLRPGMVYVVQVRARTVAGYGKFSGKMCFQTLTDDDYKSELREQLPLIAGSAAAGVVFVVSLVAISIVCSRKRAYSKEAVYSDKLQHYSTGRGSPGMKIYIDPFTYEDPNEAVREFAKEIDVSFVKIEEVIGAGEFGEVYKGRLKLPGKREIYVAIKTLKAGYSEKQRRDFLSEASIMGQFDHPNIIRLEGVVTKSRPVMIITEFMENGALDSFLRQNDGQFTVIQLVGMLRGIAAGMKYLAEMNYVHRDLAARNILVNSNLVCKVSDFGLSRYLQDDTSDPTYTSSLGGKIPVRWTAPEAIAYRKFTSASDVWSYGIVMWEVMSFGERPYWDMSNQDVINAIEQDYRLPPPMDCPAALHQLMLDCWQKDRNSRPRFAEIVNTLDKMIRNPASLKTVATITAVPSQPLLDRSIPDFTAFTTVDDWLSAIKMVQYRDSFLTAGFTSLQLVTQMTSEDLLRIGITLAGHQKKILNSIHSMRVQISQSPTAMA

FGFR1 = FGFR1 (UniProt P11362); test: as above
SHP2-C SH2 = test: SH2 binding enrichment of the phosphorylated peptide, bacterial display (enrichment ratio); higher = better substrate or ligand; peptides without Tyr show the background
c-Src SH2 = test: as above
Grb2 SH2 = Grb2 SH2 (UniProt P62993); test: as above
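Wherever SH2 binding enrichment of the phosphorylated peptide, bacterial display is given: peptide library displayed on the E. coli surface as eCPX fusions, selected cells deep-sequenced, score is each peptide's frequency after selection divided by its frequency in the input.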
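Wherever phosphorylation enrichment, bacterial display is given: 11-residue human phosphosite peptides and single-mutation variants displayed on the E. coli surface, counted by deep sequencing, each peptide's frequency after selection divided by its frequency in the unselected input library; frequency after pTyr selection over input frequency; kinase dosed for 20-30% of maximal phosphorylation in three min.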

Sequence of Jak2 (O60674 whole entry, looked up): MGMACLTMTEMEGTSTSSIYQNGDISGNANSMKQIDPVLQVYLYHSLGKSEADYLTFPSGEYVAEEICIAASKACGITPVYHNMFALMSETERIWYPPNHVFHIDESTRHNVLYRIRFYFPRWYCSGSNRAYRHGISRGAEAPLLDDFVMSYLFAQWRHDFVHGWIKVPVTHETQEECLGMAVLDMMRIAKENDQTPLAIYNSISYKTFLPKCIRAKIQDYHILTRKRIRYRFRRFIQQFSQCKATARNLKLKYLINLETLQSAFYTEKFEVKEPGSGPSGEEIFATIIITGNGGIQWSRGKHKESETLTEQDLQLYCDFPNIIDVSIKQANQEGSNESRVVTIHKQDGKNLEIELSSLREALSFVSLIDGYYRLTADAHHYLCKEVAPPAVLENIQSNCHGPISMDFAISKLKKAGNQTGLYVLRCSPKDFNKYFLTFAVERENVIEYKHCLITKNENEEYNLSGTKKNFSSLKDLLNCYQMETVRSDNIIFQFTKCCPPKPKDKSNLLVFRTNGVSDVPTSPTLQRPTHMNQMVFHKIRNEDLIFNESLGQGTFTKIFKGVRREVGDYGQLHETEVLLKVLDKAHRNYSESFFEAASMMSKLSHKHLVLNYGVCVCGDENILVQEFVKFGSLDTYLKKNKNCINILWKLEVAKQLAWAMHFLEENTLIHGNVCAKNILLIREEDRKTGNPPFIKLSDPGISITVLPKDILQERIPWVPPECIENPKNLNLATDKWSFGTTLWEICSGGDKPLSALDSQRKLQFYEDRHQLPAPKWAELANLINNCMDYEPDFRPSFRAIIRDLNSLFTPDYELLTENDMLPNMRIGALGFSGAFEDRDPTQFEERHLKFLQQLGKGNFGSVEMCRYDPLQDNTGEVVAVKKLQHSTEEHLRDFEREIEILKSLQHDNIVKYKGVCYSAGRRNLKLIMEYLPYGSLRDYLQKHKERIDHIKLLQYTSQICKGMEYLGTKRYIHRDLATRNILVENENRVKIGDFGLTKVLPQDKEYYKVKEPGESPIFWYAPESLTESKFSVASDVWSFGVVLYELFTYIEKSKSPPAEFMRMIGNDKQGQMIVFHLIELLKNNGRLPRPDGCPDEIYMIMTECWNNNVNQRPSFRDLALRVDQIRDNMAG
Sequence of FGFR3 (P22607 whole entry, looked up): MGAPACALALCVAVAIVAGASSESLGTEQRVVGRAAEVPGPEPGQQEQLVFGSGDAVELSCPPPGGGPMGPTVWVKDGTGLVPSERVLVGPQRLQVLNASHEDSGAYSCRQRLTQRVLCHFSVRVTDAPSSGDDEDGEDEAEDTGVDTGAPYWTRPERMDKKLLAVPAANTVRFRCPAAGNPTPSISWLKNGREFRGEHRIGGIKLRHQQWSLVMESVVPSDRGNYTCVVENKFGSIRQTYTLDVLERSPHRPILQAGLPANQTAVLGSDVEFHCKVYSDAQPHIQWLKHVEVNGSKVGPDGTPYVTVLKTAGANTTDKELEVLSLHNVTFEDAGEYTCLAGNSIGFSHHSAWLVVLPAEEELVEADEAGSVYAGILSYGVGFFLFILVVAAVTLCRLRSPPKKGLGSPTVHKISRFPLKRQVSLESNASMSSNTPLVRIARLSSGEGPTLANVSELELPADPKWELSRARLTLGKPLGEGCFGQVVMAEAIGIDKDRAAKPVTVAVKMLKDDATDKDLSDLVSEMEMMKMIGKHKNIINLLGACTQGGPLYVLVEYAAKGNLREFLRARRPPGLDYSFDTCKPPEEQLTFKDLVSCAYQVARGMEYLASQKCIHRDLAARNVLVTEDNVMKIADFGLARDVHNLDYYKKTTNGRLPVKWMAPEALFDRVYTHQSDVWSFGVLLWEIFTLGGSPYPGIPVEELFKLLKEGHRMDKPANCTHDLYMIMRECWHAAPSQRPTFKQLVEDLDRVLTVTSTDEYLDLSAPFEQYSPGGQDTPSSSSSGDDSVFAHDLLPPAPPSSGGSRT

SH2 binding enrichment (SHP2-C SH2)	SH2 binding enrichment (c-Src SH2)	SH2 binding enrichment (Grb2 SH2)	Sequence	phosphorylation enrichment (Jak2)	phosphorylation enrichment (c-Src)	phosphorylation enrichment (FGFR3)	phosphorylation enrichment (c-Abl (mouse))	phosphorylation enrichment (Fes)	phosphorylation enrichment (Fyn)	phosphorylation enrichment (Hck)	phosphorylation enrichment (MERTK)	phosphorylation enrichment (Fer (mouse))	phosphorylation enrichment (AncSZ)	phosphorylation enrichment (EPHB2)	phosphorylation enrichment (EPHB1)	phosphorylation enrichment (FGFR1)
1.05	1.25	1.31	VIKDKYPKARY [APTX_Y209]	0.83	0.454	0.551	0.692	0.699	0.256	0.373	0.38	0.426	0.728	0.417	0.376	0.44
0.668	0.397	0.814	KSVVTYSPTTG [ITGB3BP_Y32_I30V]	0.489	0.431	0.442	0.618	0.527	0.401	0.372	0.423	0.369	0.478	0.416	0.427	0.375
3	2.24	0.777	SSVAGYACLAY [MVD_Y131_A128V]	0.852	0.554	0.701	0.768	0.994	0.466	0.538	0.463	0.587	0.898	0.582	0.564	0.495
0.586	0.524	0.8	AFPVSYSSSSA [RET_Y687_G691S]	0.527	0.415	0.685	0.455	0.663	0.461	0.463	0.536	0.425	0.598	0.425	0.511	0.38
0.548	0.487	0.944	DTFDPYLDIAL [USP36_Y268_V271I_YF]	1.39	0.832	1	0.727	1.52	0.692	0.577	0.527	1.08	1.25	0.589	0.73	0.783
0.962	1.4	1.88	RHFVFYFSFLL [PTEN_Y177_R173H_YF]	0.607	0.653	0.553	0.703	0.867	0.538	0.391	0.357	0.18	1.26	1.44	0.547	0.496
0.717	0.51	0.697	GIYEDYVEGLR [MYL6_Y89_T85I]	0.946	4.26	0.86	0.727	1.45	6.03	3.65	1.42	6.33	1.49	6.61	5.82	0.965
0.55	0.397	0.671	LRRREYQRQDF [PRKRIP1_Y90_YF]	0.836	0.977	0.561	0.777	0.679	0.539	0.572	0.7	0.563	0.603	0.559	0.549	0.699
0.476	0.491	0.798	QEEPEYWDQET [HLA-A_Y83_G80E]	2	0.823	1.43	0.907	1.95	0.943	0.699	0.384	0.902	2.08	0.793	1.08	0.897
0.452	0.389	0.678	REGAKYVSHDA [ASS1_Y113_G117D]	0.886	0.565	0.739	0.75	0.988	0.655	0.553	0.833	0.767	1.4	0.423	0.508	0.648
0.941	1.43	0.957	ASGKYYAMKIL [AKT3_Y174]	0.662	0.396	0.623	0.582	0.657	0.446	0.434	0.591	0.434	0.664	0.407	0.313	0.74
0.798	0.674	1.15	GGRKGYGDFSR [RECQL5_Y478]	0.422	0.418	0.363	0.944	0.622	0.334	0.33	0.425	0.352	0.416	0.354	0.412	0.345
0.64	0.823	0.744	LTTEAYEWEPR [ELMOD3_Y61]	1.16	1.31	1.06	0.831	1.89	1.1	0.943	0.724	1.07	1.69	1.24	1.11	1.08
0.535	0.41	0.674	PSPTKYSLSPS [RANBP2_Y785_R784K]	0.725	0.514	0.471	0.553	0.669	0.318	0.354	0.473	0.534	1.19	0.492	0.437	0.515
0.565	0.383	0.852	GASRRYGSGVS [NEU1_Y242_W240R]	0.436	0.41	0.439	0.437	0.539	0.384	0.437	0.509	0.43	0.582	0.48	0.429	0.393
0.745	0.555	0.677	GGYTCYSDGKK [PROS1_Y266_C267S]	1.01	0.516	0.826	0.908	1.22	0.458	0.499	0.441	0.593	1.13	0.561	0.677	0.592
